Reference: publication PMC2702006 (The Febs Journal, 2009)

Tests used:
[1] = target: the molecule itself; assay: cell-based or functional assay
cross-linking = target: the molecule itself; assay: cross-linking
FRET or BRET = target: the molecule itself; assay: FRET or BRET

B1: human Hsp90β L24R (natural protein)
chain: not shown
For B1, the “ATPase activity relative to wild-type Hsp90β” value [1] was 6.2 % activity relative to wild-type Hsp90β.

B2: human Hsp90β A116N (natural protein)
chain: not shown
B2: binds (cross-linking).

B3: human Hsp90β T110I (natural protein)
chain: not shown
B3: binds (cross-linking).

B4: pyrene-labelled human Hsp90β E20C-C366A-A116N (natural protein)
chain: not shown
modifications: N-(1-pyrene)-maleimide label at position 20 (E20C)
B4: binds (FRET or BRET).
